In the domain aggregation screens of Martell et al. (2025):

Assay: soluble fraction after stress (log2 fold change); higher = more stays soluble; pooled small domains, quantitative proteomics
Settings: stress: pH 4
Procedure, shortened: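 Values are log2 fold changes, and higher ones mean more of the domain stayed soluble. Each fold change reflects the soluble amount of a domain after acid stress and is taken as a measure of aggregation propensity. The stress was pH 4, applied to pooled custom libraries of small protein domains analysed by high-throughput quantitative proteomics.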

Sequence | soluble fraction (log2)
HMEIETPEIRAIHDLLELLANKAKKPEQEQFVQAHPEVQWAKVEANKNGTFAVGKVKAYLKTLQA | -0.568
HMEIGNVIAKLRVSNGLNQREFAKKLEVSNGAVAMWETNKRQPDLEMIKKISNLFDVPTDYILGAGTFQ | 0.152
HMEIIFVEHKVRPGESVWLIARKYKVKKNHILAVNNLSEKSIIRPKQILKIPTSGYDQYKKSVE | -0.495
HMEIIMIVITKPSITDERIAEIVAVIERNGGVQAHVSKGTDRTVIGIIGKAEPTLAEHLRQMKGVENVIKI | -0.327
HMEIPMRDKLKTYIDYLFAGAPQTAATAETKAEILQNTLDKYDDLIAEGKTPEAAYSLAVSGIGDLGDF | -0.339
HMEIPTEEILKQKLYYSISEVASWFKVNTSLLRYWENEFDILQPRKTRKGDRLFRVEDIKNLQLIYLL | -0.122
HMEITGKYKAKEDIKLKVIPLISSLDLQDIKQNTELEVKDTMNNWAYVTVQEKQGWVVLEKIEKVE | -1.07
HMEITTLTGVLGAGRLDSALAAALPQYSRARIQALISDAALRINGQVVADAGSKKMSGQTFELNIPAPVP | 0.0449
HMEKDEYIFVDIDGAVFNPGVYKLIAGSRVIDAINLAGGLKEKAFTQNLNKARKLVDGEKIYIYLEGDEE | -1.23
HMEKDRDKRIRKRVLTALKRNDKKMTDKAFALLTSRIRDESILDQEVLKLIGYVGDRTTIDSKDINIVVAE | 0.0457
HMEKEEELNSIRPDLDGNDIMEILGVPAGPKVGKAYNYLLNVRLDEGPLSRAEAISRLEAWWENQ | -1.22
HMEKELVSDFASRISTARSSKGWNHAELGKRMAETVNVIKSAESGKPPTDSVVKKLERVLGITLMEV | -0.218
HMEKEYMKNVVGMEYRQARVLLGDMGLELAFQPVYETSDKYPTDVVVSTEPAADQPLTKGQTVILHIST | 0.299
HMEKGNEEALEQAREAILAVQSGEKYVDLDPANAAIRRKQHALAQASDLVSQSYGKDPNRYVRIFR | 0.367
HMEKINLLVENNDNYRLDKIIALNMEELSRTQIQEMIGQGLVLVNGKVEKASYKTKLNDQIEITIED | -0.409
HMEKKKVPEVAGQDEAAARNVMTNSGFVVDVEQKEDDNVPAGKVITTAPAGGVEVVEGTKIILYVSKGSN | 0.0237
HMEKKPYGEMHNVMLTDEELEKLRHDYPAHFAEYIQRLSLHIDAKGARYKSHYAVIRKWLIADGVKA | 0.0221
HMEKLIRIKRLIKQLNEYRDSYYNEARPVVSDAAYDKLFDELSELEKETGVVYANSPTQTVG | -0.457
HMEKPTEITLSNRVSVQELAEKMYVSETDIIRTLFLDGRIININQVLDIDTAIRVGEQLGIKIKII | -1.49
HMEKPTRNKLVEIIIQNKNVTTEQMANLLNISRRAVAKHIKKLQEEGIIRRIGPDFGGHWEIVK | 0.225
HMEKPYTPPANLNEIQSYEELSKAVQYYNKVKDAATTDADRLKAQQSIDTLEDMRKAWDAASST | -0.312
HMEKSLSAQVYEKIKAGIISLKYPPGSVLKERELSESLGVSRTPVREAIQRLSQESWLVPGEGKRMQVRP | ≥ 0.43
HMEKTLAERVNDILAEIKMTKQELAMQLNISRSAVSQYLNGKYSSNPEAIEARLRDFVSSYDRG | -0.243

Sequence | soluble fraction (log2)
HMEKYIVEAEEQGKRLDMYISSKDEELTRTSAQRLIEQGDILVNNKKVKVAYKVSEGDIIAVEKQ | 0.00594
HMELDLPLEELGLSTRVLHSLKEEGIESVRALLALNLKDLKNIPGIGERSLEEIKEALEKKGFTLK | -0.423
HMELEENTERVLNILIENDIISENDIAEKLEVKINGARKALYKLKEVGFVEYTKERDEEKKWWYIYFWKLN | -0.36
HMELEKIRPDLDGLEIMAILGISPSPIVGRAYQYLLDLRMDRGPLGPDAAKAELLNWWSLNQPK | -1.62
HMELGRQDSAQLGRWAAGILAKNGKKITGRTMEFFLSRTGDDMENISSELEKLISYTLGREVITEEDIEAV | -0.757
HMELGWYVRLRRRELGLSVTALAEKAGMSQSYLSQIETGDRGNPSPESLRSLAEALEVSPRELESLV | 0.286
HMELMKPPGYWQSLENAIYESKKVIKEHGFDTLPSSNKLRELDYHGLSRAISVHHSGFPNFREIMNQELGI | -0.0528
HMELNDEELIKGIQELLTKIGYDPGEINGVLGIKTSSAISAFQQSRNKAITGEADLDLLVQLQIELRKITT | -1.32
HMELNGVSETAKSVYSIILNNSSTVDDIVIKTKLPAAKVMQALTELELNDAVERKSGGVYALP | -0.0324
HMELPADLATVLSVDDIRAIALAEVPGSTITGVELEREEGVLVYKVKFNDGSYKLYDANTGELV | -0.238
HMELPPLEPIDRILVVQQPINIREQPGVLAKKIGRVSSGETLTILAKVSGQDWYFVETDNGGRGYVFKRV | -0.222
HMELQYSQEIEEAQKILENLGLYRGEIDGINGINTKSAIREFQRKSGLVVDGILGPNTTNALSKGSDAYIT | 0.0515
HMELVQIIGNNIRDLMTTRSVTITDLANYLNVSRQTLQNYLRGSNIIDSVKLVAVSDFFDVPVESLLQSK | -0.783
HMEMGNKIKELRTKLGITQEELSKTLNVSSQAVSKWENGGLPDLELIPEIAKYFNVTTDYLFDIK | -0.723
HMEMKVIPFNQMTRDQFDQLDRFLGRLAAAQAMGSLRLTKAQQNYFLNQVKQLDLYRKRILN | 0.0144
HMEMTSREIIKRLEEDGWYHVKTTGDHYQMKHPTKPGKVTIVHPAKDLSIGTLRSIEKQSGVRL | ≥ 0.43
HMEMVSMPGLTGSTLEFATKTLTENELKYEVVYIVDASAESGLIIRTYPTEGEMVSKKTSTIYLYIKE | -0.481
HMENDGQFLRAEREKYGLTLTDIYEHTHIPIKKLKAYEMWEEEMPPRTRALLELYFDQVAFEYDS | -0.556
HMENDPYEILGIARSASDDEIKAKYRALTRENHPDILMAKGVPQEFIDLANEKMAVINAAYDKIEKER | 0.12
HMENEDMTGDIRVIDYIRNVAEYIQTTKGQASASQMLDRFLFPPELQYTPLDKLSGGEQRRLYLLKVLMEA | -0.575
HMENEFEAYSDGSSIQLNDPSKATYVVFDRQGRLLHLFQNHSLSSLSIERKNQILIITRETADGVSVKKIV | -0.167
HMENEIPVPELVGMSEADAAAKLASLGLERDTQREATADEESVGKVLRQEPTPGEYVDEGHKVTIWVGE | 0.22
HMENFSTLFSRLKEERGLSNKQISSFTGAPIKEVKKWESGMGIPTEKRIVAALEGILGSEISKAI | 0.353

Sequence | soluble fraction (log2)
HMENHILIIDDDLMLLKTAEEILSDQYNVSVAKSGIQALNLLNKNIIPDLILLDIDMPQMDGYETL | -0.554
HMENIIFDIGFHKGEDTLFYLLKGYRVIAVDADPDLINEWQNIFKKYIENGKLLLLNYVISDT | -1.18
HMENISVESKMKLLLKSLKTRDFISLPELVLKGESKLAISVILVAALELNRKGYIEVVQAEQFGEIYFKNT | 0.0399
HMENKVLVITEEEKGKRLDVYLAAALEVSRSYAQQLIQGEDVVVNDKQVKANYRLSEGDVVQVQLD | -0.218
HMENLIEELTAKNKEYIHSVTKQLILVGKSDEEVKEILNDILPQIIEGQKSGIIARKLLGAPTEFVSQYQP | -0.317
HMENLQLQQLVKGLPEKMQEIVILRFSQELTMREIADIVNLPMRTVQSQLRLALKILKKEMG | 0.145
HMENLSFNINSEEEGQRIDKYLSVMIEGKSRSFVQGLIEEKKVKANSKVIKSNYKLKKGDFIEVEVPEPV | 0.36
HMENLSGNDIKYLRKKYNLTQKELADALGLQKFGDRTIRRWEAEETHPSKLEQSSIQSFFNSLK | 0.111
HMENLTLVIGNKLKNIRNSRNLSLDDVAELTGVSKAMLGQIERGKSNPTVSTLWKISTGLRVSFSSFIDE | -0.249
HMENLVPVVVATTNIEPRTQITDAMVKVEQIPALGRNESMLEDPALVVGGYATGKIYAGQSFIQPMVSK | 0.192
HMENNIILNYVKDNLNITEKDAKDLIELLGSDYYHIKNETNKIAAFLDGQPYSFEKIKNLISIDKEY | -0.644
HMENPLETYYSQWVSAIKREHPEASFVKDTDGKYYVEGLTKNRLAVIYENPHLVRLVNATTNLHVE | 0.14
HMENPVPVIITDQNFQPLLWKNVGVPTDTIFHELSPENQKKLENLMKTMVQMPLTDDGRISGYAYYSK | 0.149
HMENQFNDWSLTPSEKEVALFMLKGLSTQEIAAARNTKEKTVRQQASAVYAKSQLDGRYALAAWFFEDI | -1.04
HMENQMIIYIDENDENKRLDSYLSEITPDYSRSKIQNFIKNGNVTVNDSNKKPSYLLKENDKISFELPQQ | -0.158
HMENSLLSESLAKIYIKTHRYERAYEILSRLSLAVPEKNAYFADQLRFLRKVMLAESFRKQHS | 0.22
HMENTSPMTPEQSKALMAYLTKRHGDSREAYLSELSQFFGRPLSSSRELTKADVSEFLNAIN | -0.0703
HMENVVESIYNKMVESITNGQWAAGSKIPTENELAKTYQVSRSSVRQAISRLKALGLLESRQGSGTVIKK | 0.178
HMENWMPNLVNQDKRLAINTLRELGFTEEAGNLVIREETSEDVTKDYVISTDPVAETDLADVEKVTLVVSS | -0.219
HMENYIEQLTAKNSEYIHVVTRELVKIGKSDEEIKAILSDILPQIVAAQDQRVLAKDILGTPSEFTAKYAP | 0.0161
HMEPDDLTVIKGIGPVAAKDLNEQGIITFAQLAKLSDKDVAKIDEHMPFSADQIKDWREQAKELAK | 0.0725
HMEPDEIVLDHRKRIENSDAIVLIAPIWNFRMPAILEGWIDKVLAPPWAFKFKKLFGNYGYPVGNLKG | -0.121
HMEPDTVVVPNFVGKVYASEIEGNEAYSDFTFVIKEGNDPEQDIGVVLKQTPNEGLEVKKGKEITLTINQ | -0.169
